In patent US20230002496A1 (STAIDSON BEIJING BIOPHARMACEUTICALS, published 2023):

T1: human GM-CSFRα, full length on cells (human, UniProt P15509 23-400)
T1 sequence: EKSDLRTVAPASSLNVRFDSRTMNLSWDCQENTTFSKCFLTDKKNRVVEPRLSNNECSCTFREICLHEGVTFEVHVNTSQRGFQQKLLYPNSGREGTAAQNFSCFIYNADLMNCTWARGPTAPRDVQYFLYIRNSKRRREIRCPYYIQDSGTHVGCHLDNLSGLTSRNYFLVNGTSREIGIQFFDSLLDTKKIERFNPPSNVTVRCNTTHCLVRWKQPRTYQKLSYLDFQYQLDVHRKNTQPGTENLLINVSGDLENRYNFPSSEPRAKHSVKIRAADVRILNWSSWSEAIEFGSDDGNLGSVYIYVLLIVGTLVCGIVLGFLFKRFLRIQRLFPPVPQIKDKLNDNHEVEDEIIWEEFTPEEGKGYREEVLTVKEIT


target: T1, human GM-CSFRα, full length on cells; assay: cell-based or functional assay

Binder | IC50, TF-1 cell proliferation
E35-scFv LS31L (scFv, V domains shown) VH: QMQLVQSGAEVKKPGASVKVSCKVSGYTLTELSIHWVRQAPGKGLEWMGGFDPEDGETIYAQKFQGRVTMTGDTSTDTAYLELSSLRSEDTALYYCATGRYTSLATTYGFDYWGQGTLVTVSS VL: EIVMTQSPATLSLSPGERATLSCRASQSVSLYLAWYQQKPGQAPRLLIYGASSRATGIPDRFSGSGSGTDFTLTISRLEPEDFAVYYCQQYDNWPYTFGQGTKLEIK | 0.235 µg/mL
E35-scFv LS28W (scFv, V domains shown) VH: QMQLVQSGAEVKKPGASVKVSCKVSGYTLTELSIHWVRQAPGKGLEWMGGFDPEDGETIYAQKFQGRVTMTGDTSTDTAYLELSSLRSEDTALYYCATGRYTSLATTYGFDYWGQGTLVTVSS VL: EIVMTQSPATLSLSPGERATLSCRASQWVSSYLAWYQQKPGQAPRLLIYGASSRATGIPDRFSGSGSGTDFTLTISRLEPEDFAVYYCQQYDNWPYTFGQGTKLEIK | 0.06 µg/mL
E35-scFv LS28F (scFv, V domains shown) VH: QMQLVQSGAEVKKPGASVKVSCKVSGYTLTELSIHWVRQAPGKGLEWMGGFDPEDGETIYAQKFQGRVTMTGDTSTDTAYLELSSLRSEDTALYYCATGRYTSLATTYGFDYWGQGTLVTVSS VL: EIVMTQSPATLSLSPGERATLSCRASQFVSSYLAWYQQKPGQAPRLLIYGASSRATGIPDRFSGSGSGTDFTLTISRLEPEDFAVYYCQQYDNWPYTFGQGTKLEIK | 0.1 µg/mL
E35-scFv (scFv, V domains shown) VH: QMQLVQSGAEVKKPGASVKVSCKVSGYTLTELSIHWVRQAPGKGLEWMGGFDPEDGETIYAQKFQGRVTMTGDTSTDTAYLELSSLRSEDTALYYCATGRYTSLATTYGFDYWGQGTLVTVSS VL: EIVMTQSPATLSLSPGERATLSCRASQSVSSYLAWYQQKPGQAPRLLIYGASSRATGIPDRFSGSGSGTDFTLTISRLEPEDFAVYYCQQYDNWPYTFGQGTKLEIK | 0.12 µg/mL
E35-scFv LS28Q (scFv, V domains shown) VH: QMQLVQSGAEVKKPGASVKVSCKVSGYTLTELSIHWVRQAPGKGLEWMGGFDPEDGETIYAQKFQGRVTMTGDTSTDTAYLELSSLRSEDTALYYCATGRYTSLATTYGFDYWGQGTLVTVSS VL: EIVMTQSPATLSLSPGERATLSCRASQQVSSYLAWYQQKPGQAPRLLIYGASSRATGIPDRFSGSGSGTDFTLTISRLEPEDFAVYYCQQYDNWPYTFGQGTKLEIK | 0.154 µg/mL
E35-scFv LS28V (scFv, V domains shown) VH: QMQLVQSGAEVKKPGASVKVSCKVSGYTLTELSIHWVRQAPGKGLEWMGGFDPEDGETIYAQKFQGRVTMTGDTSTDTAYLELSSLRSEDTALYYCATGRYTSLATTYGFDYWGQGTLVTVSS VL: EIVMTQSPATLSLSPGERATLSCRASQVVSSYLAWYQQKPGQAPRLLIYGASSRATGIPDRFSGSGSGTDFTLTISRLEPEDFAVYYCQQYDNWPYTFGQGTKLEIK | 0.104 µg/mL
E35-scFv LS28R (scFv, V domains shown) VH: QMQLVQSGAEVKKPGASVKVSCKVSGYTLTELSIHWVRQAPGKGLEWMGGFDPEDGETIYAQKFQGRVTMTGDTSTDTAYLELSSLRSEDTALYYCATGRYTSLATTYGFDYWGQGTLVTVSS VL: EIVMTQSPATLSLSPGERATLSCRASQRVSSYLAWYQQKPGQAPRLLIYGASSRATGIPDRFSGSGSGTDFTLTISRLEPEDFAVYYCQQYDNWPYTFGQGTKLEIK | 0.077 µg/mL
E35-scFv LS31D (scFv, V domains shown) VH: QMQLVQSGAEVKKPGASVKVSCKVSGYTLTELSIHWVRQAPGKGLEWMGGFDPEDGETIYAQKFQGRVTMTGDTSTDTAYLELSSLRSEDTALYYCATGRYTSLATTYGFDYWGQGTLVTVSS VL: EIVMTQSPATLSLSPGERATLSCRASQSVSDYLAWYQQKPGQAPRLLIYGASSRATGIPDRFSGSGSGTDFTLTISRLEPEDFAVYYCQQYDNWPYTFGQGTKLEIK | 1.34 µg/mL
E35-scFv LS31G (scFv, V domains shown) VH: QMQLVQSGAEVKKPGASVKVSCKVSGYTLTELSIHWVRQAPGKGLEWMGGFDPEDGETIYAQKFQGRVTMTGDTSTDTAYLELSSLRSEDTALYYCATGRYTSLATTYGFDYWGQGTLVTVSS VL: EIVMTQSPATLSLSPGERATLSCRASQSVSGYLAWYQQKPGQAPRLLIYGASSRATGIPDRFSGSGSGTDFTLTISRLEPEDFAVYYCQQYDNWPYTFGQGTKLEIK | 0.279 µg/mL
E35-scFv LS31E (scFv, V domains shown) VH: QMQLVQSGAEVKKPGASVKVSCKVSGYTLTELSIHWVRQAPGKGLEWMGGFDPEDGETIYAQKFQGRVTMTGDTSTDTAYLELSSLRSEDTALYYCATGRYTSLATTYGFDYWGQGTLVTVSS VL: EIVMTQSPATLSLSPGERATLSCRASQSVSEYLAWYQQKPGQAPRLLIYGASSRATGIPDRFSGSGSGTDFTLTISRLEPEDFAVYYCQQYDNWPYTFGQGTKLEIK | 0.832 µg/mL
E35-scFv LS28L (scFv, V domains shown) VH: QMQLVQSGAEVKKPGASVKVSCKVSGYTLTELSIHWVRQAPGKGLEWMGGFDPEDGETIYAQKFQGRVTMTGDTSTDTAYLELSSLRSEDTALYYCATGRYTSLATTYGFDYWGQGTLVTVSS VL: EIVMTQSPATLSLSPGERATLSCRASQLVSSYLAWYQQKPGQAPRLLIYGASSRATGIPDRFSGSGSGTDFTLTISRLEPEDFAVYYCQQYDNWPYTFGQGTKLEIK | 0.067 µg/mL
E35-scFv LS28H (scFv, V domains shown) VH: QMQLVQSGAEVKKPGASVKVSCKVSGYTLTELSIHWVRQAPGKGLEWMGGFDPEDGETIYAQKFQGRVTMTGDTSTDTAYLELSSLRSEDTALYYCATGRYTSLATTYGFDYWGQGTLVTVSS VL: EIVMTQSPATLSLSPGERATLSCRASQHVSSYLAWYQQKPGQAPRLLIYGASSRATGIPDRFSGSGSGTDFTLTISRLEPEDFAVYYCQQYDNWPYTFGQGTKLEIK | 0.058 µg/mL
E35-scFv LS28P (scFv, V domains shown) VH: QMQLVQSGAEVKKPGASVKVSCKVSGYTLTELSIHWVRQAPGKGLEWMGGFDPEDGETIYAQKFQGRVTMTGDTSTDTAYLELSSLRSEDTALYYCATGRYTSLATTYGFDYWGQGTLVTVSS VL: EIVMTQSPATLSLSPGERATLSCRASQPVSSYLAWYQQKPGQAPRLLIYGASSRATGIPDRFSGSGSGTDFTLTISRLEPEDFAVYYCQQYDNWPYTFGQGTKLEIK | 0.089 µg/mL
E35-scFv LS28A (scFv, V domains shown) VH: QMQLVQSGAEVKKPGASVKVSCKVSGYTLTELSIHWVRQAPGKGLEWMGGFDPEDGETIYAQKFQGRVTMTGDTSTDTAYLELSSLRSEDTALYYCATGRYTSLATTYGFDYWGQGTLVTVSS VL: EIVMTQSPATLSLSPGERATLSCRASQAVSSYLAWYQQKPGQAPRLLIYGASSRATGIPDRFSGSGSGTDFTLTISRLEPEDFAVYYCQQYDNWPYTFGQGTKLEIK | 0.116 µg/mL
E35-scFv LS31I (scFv, V domains shown) VH: QMQLVQSGAEVKKPGASVKVSCKVSGYTLTELSIHWVRQAPGKGLEWMGGFDPEDGETIYAQKFQGRVTMTGDTSTDTAYLELSSLRSEDTALYYCATGRYTSLATTYGFDYWGQGTLVTVSS VL: EIVMTQSPATLSLSPGERATLSCRASQSVSIYLAWYQQKPGQAPRLLIYGASSRATGIPDRFSGSGSGTDFTLTISRLEPEDFAVYYCQQYDNWPYTFGQGTKLEIK | 0.681 µg/mL
E35-scFv LS28K (scFv, V domains shown) VH: QMQLVQSGAEVKKPGASVKVSCKVSGYTLTELSIHWVRQAPGKGLEWMGGFDPEDGETIYAQKFQGRVTMTGDTSTDTAYLELSSLRSEDTALYYCATGRYTSLATTYGFDYWGQGTLVTVSS VL: EIVMTQSPATLSLSPGERATLSCRASQKVSSYLAWYQQKPGQAPRLLIYGASSRATGIPDRFSGSGSGTDFTLTISRLEPEDFAVYYCQQYDNWPYTFGQGTKLEIK | 0.082 µg/mL
E35-scFv LS28I (scFv, V domains shown) VH: QMQLVQSGAEVKKPGASVKVSCKVSGYTLTELSIHWVRQAPGKGLEWMGGFDPEDGETIYAQKFQGRVTMTGDTSTDTAYLELSSLRSEDTALYYCATGRYTSLATTYGFDYWGQGTLVTVSS VL: EIVMTQSPATLSLSPGERATLSCRASQIVSSYLAWYQQKPGQAPRLLIYGASSRATGIPDRFSGSGSGTDFTLTISRLEPEDFAVYYCQQYDNWPYTFGQGTKLEIK | 0.091 µg/mL
E35-scFv LS28E (scFv, V domains shown) VH: QMQLVQSGAEVKKPGASVKVSCKVSGYTLTELSIHWVRQAPGKGLEWMGGFDPEDGETIYAQKFQGRVTMTGDTSTDTAYLELSSLRSEDTALYYCATGRYTSLATTYGFDYWGQGTLVTVSS VL: EIVMTQSPATLSLSPGERATLSCRASQEVSSYLAWYQQKPGQAPRLLIYGASSRATGIPDRFSGSGSGTDFTLTISRLEPEDFAVYYCQQYDNWPYTFGQGTKLEIK | 0.111 µg/mL
E35-scFv LS31W (scFv, V domains shown) VH: QMQLVQSGAEVKKPGASVKVSCKVSGYTLTELSIHWVRQAPGKGLEWMGGFDPEDGETIYAQKFQGRVTMTGDTSTDTAYLELSSLRSEDTALYYCATGRYTSLATTYGFDYWGQGTLVTVSS VL: EIVMTQSPATLSLSPGERATLSCRASQSVSWYLAWYQQKPGQAPRLLIYGASSRATGIPDRFSGSGSGTDFTLTISRLEPEDFAVYYCQQYDNWPYTFGQGTKLEIK | 0.649 µg/mL
E35-scFv LS28T (scFv, V domains shown) VH: QMQLVQSGAEVKKPGASVKVSCKVSGYTLTELSIHWVRQAPGKGLEWMGGFDPEDGETIYAQKFQGRVTMTGDTSTDTAYLELSSLRSEDTALYYCATGRYTSLATTYGFDYWGQGTLVTVSS VL: EIVMTQSPATLSLSPGERATLSCRASQTVSSYLAWYQQKPGQAPRLLIYGASSRATGIPDRFSGSGSGTDFTLTISRLEPEDFAVYYCQQYDNWPYTFGQGTKLEIK | 0.088 µg/mL
